Assay [1] concerns anti-CD2 activator reagent, anti-CD2 monoclonal antibody (clone TS1/8), anti-CD2 polyclonal antibody reagent. Description: CSR CD2z mutant surface expression and staining with anti-CD2 antibody reagents in K562 cells. It counts as binding. The note with it: 9 μg mRNA, next day. The procedure: FIG. 23A is a bar graph showing CSR CD2z mutant staining data. A panel of CSR CD2z mutants was designed, constructed, and tested for surface expression and binding to several anti-CD2 antibody reagents. To do so, each mutant was synthesized, subcloned into an in-house mRNA production vector, and then high-quality mRNA was produced for each. K562 cells were electroporated with 9 μg of mRNA, and surface-expression of each molecule was analyzed by flow cytometry the next day and data are shown as bar graphs. Each molecule was stained with anti-CD2 activator reagent, anti-CD2 monoclonal antibody (clone TS1/8), or anti-CD2 polyclonal antibody reagent (goat anti-human CD2).
(§1) FIG. 23C is a summary of staining and degranulation data. Data from surface-expression and binding studies, as well as those from degranulation experiments for each CSR CD2z mutant is summarized in the table.

In the next assay the test system is Allo CAR-T cells. Description: Expansion of Allo CAR-T cells with WT or mutant (D111H) CSR CD2z. It counts as cell-based, human. Conditions: up to 15-day culture; CSR stable or transient. The text has this: FIG. 24A is a bar graph showing that the delivery of CSR CD2z-D111H mutant enhances the expansion of Allo CAR-T cells. Pan T cells isolated from healthy donor blood were genetically modified using the piggyBac® DNA modification system in combination with the Cas-CLOVER™ gene-editing system (CC) for the production of allogeneic (Allo) CAR-T cells, or without CC gene-editing, as a control, for the production of autologous (Auto) CAR-T without a CSR (No CSR); auto CAR-T cells were produced by nucleofection of an mRNA encoding the super piggyBac™ transposase enzyme (SPB) and a transposon encoding a CAR, selection gene and a safety switch. […] Following EP, all cells were subsequently stimulated with a cocktail of agonist mAbs anti-CD2, anti-CD3 and anti-CD28, and were later selected for genetic modification over the course of up to a 15-day culture period using the selection gene. At the end of the initial culture period, all T cells expressed the CAR, indicating successful selection for genetically-modified cells (data not shown), and then all non-edited TCR-positive cells were depleted via negative selection to yield a population of Allo CAR-T cells that were >99% TCR-negative (data not shown).

A further assay has as its target T1, human CD58 (Homo sapiens, UniProt P19256).
T1 construct: expressed in transfected cells; host or cells: K562 (electroporated) or Rat2 (lipofected) cells
T1 sequence (P19256 29-250): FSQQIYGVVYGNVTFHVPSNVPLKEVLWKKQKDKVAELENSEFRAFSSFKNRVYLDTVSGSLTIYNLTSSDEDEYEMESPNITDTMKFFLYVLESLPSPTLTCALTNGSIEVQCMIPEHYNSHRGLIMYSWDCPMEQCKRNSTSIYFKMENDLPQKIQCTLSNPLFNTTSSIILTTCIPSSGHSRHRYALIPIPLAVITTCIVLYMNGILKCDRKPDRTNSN
Description: T cell degranulation (CD107a) against CD58-positive cell targets. The note with it: 4-6 hours coculture, K562 or Rat2 cells with mRNA encoding human CD58. It counts as cell-based. The procedure:
FIG. 23B is a series of bar graphs showing CSR CD2z mutant degranulation data. The panel of CSR CD2z mutants was tested for the capability of mediating degranulation against CD58-positive cell targets. T cell degranulation is a surrogate of T cell killing that can be measured by FACS staining for intracellular CD107a expression following coculture with target cell lines expressing target antigen. Specifically, pan T cells from normal blood donors were stimulated with anti-CD3/anti-CD28 beads in standard T cell culture media, then rested. These cells were then electroporated (BTX ECM 830 electroporator @ 500V for 700 μs) with 9 μg of mRNA expressing CSR CD2z mutants and cultured overnight. The next day, the cells were cocultured for 4-6 hours in the presence of various target cell lines. Positive target cell lines included K562 cells or Rat2 cells that were electroporated or lipofected, respectively, with mRNA encoding human CD58, while negative controls were either Rat2 cells that were not electroporated or CSR CD2z mutant expressing T cells alone.
as §1
FIG. 23D is a series of flow cytometry plots showing the expression of CD48, CD58 or CD59 on K562 and Rat2 cells. To confirm possible ligands for the CSR WT CD2z molecule, a panel of known and suspected ligands including human CD48, CD58, and CD59 were tested. Degranulation of engineered T cells was evaluated against the cell lines K562 and Rat2 that were made to overexpress the target ligands and confirmed for expression by FACS staining. Red histograms are unstained cells and blue histograms are cells that were electroporated/lipofected with mRNA and then stained for expression of the respective marker by FACS.
FIG. 23E is a bar graph showing that CSR CD2z recognizes human CD58, but not CD48 or CD59. To confirm possible ligands for the CSR WT CD2z molecule, a panel of known and suspected ligands including human CD48, CD58, and CD59 were tested. Degranulation of engineered T cells was evaluated against the cell lines K562 and Rat2 that were made to overexpress the target ligands and confirmed for expression by FACS staining. Cells were electroporated/lipofected with mRNA and then stained for expression of the respective marker by FACS. As a control, a BCMA CAR was included as well as a K562 cell line overexpressing BCMA. In addition, T cells transfected with GFP were also included as a control. T cell degranulation is a surrogate of T cell killing that can be measured by FACS staining for intracellular CD107a expression following coculture with target cell lines expressing target antigen. Pan T cells from normal blood donors were stimulated with anti-CD3/anti-CD28 beads in standard T cell culture media, then rested. These T cells were then electroporated with mRNA expressing CSR WT CD2z, BCMA CAR, or GFP and cultured overnight. The next day, the cells were cocultured for 4-6 hours in the presence of the various target cell lines that were electroporate/lipofected with mRNA encoding human CD48, CD58 or CD59, while negative controls were either K562 or Rat2 cells that were not electroporated/lipofected, or each of the electroporated T cells alone.

For a further assay, the system named is TCRb and b2M. Description: Gene editing (knockout of TCR and MHCI) of Allo CAR-T cells with CSR. It counts as cell-based, human. The note with it: up to 14-day culture; CSR stable or transient. The text has this: Pan T cells isolated from healthy donor blood were genetically modified using the piggyBac® DNA modification system in combination with the Cas-CLOVER™ gene-editing system (CC) to produce allogeneic (Allo) CAR-T cells. […] Following EP, all cells were subsequently stimulated with a cocktail of agonist mAbs anti-CD2, anti-CD3 and anti-CD28, and were later selected for genetic modification over the course of up to a 14-day culture period using the selection gene. At the end of the initial culture period, all T cells expressed the CAR, indicating successful selection for genetically-modified cells (data not shown). All samples were performed in duplicate, and data is shown in bar graph where error bars represent standard deviation.

Residue numbers refer to the chain shown, from its start. Names and notes keep the numbering of the source. “Also recorded” adds a separate entry of the source.

B1: D111H: mutant CSR CD2z with D111H mutation within the CD2 extracellular domain (SEQ ID NO: 17118) (protein)
chain: MSFPCKFVASFLLIFNVSSKGAVSKEITNALETWGALGQDINLDIPSFQMSDDIDDIKWEKTSDKKKIAQFRKEKETFKEKDTYKLFKNGTLKIKHLKTDDQDIYKVSIYHTKGKNVLEKIFDLKIQERVSKPKISWTCINTTLTCEVMNGTDPELNLYQDGKHLKLSQRVITHKWTTSLSAKFKCTAGNKVSKESSVEPVSCPEKGLDIYLIIGICGGGSLLMVFVALLVFYITKRKKQRSRRNDEELETRAHRVATEERGRKPHQIPASTPQNPATSQHPPPPPGHRSQAPSHRPPPPGHRVQHQPQKRPPAPSGTQVHQQKGPPLPRPRVQPKPPHGAAENSLSPSSNRVKFSRSADAPAYKQGQNQLYNELNLGRREEYDVLDKRRGRDPEMGGKPRRKNPQEGLYNELQKDKMAEAYSEIGMKGERRRGKGHDGLYQGLSTATKDTYDALHMQALPPR
On to B1, for which, in assay [1], the “surface expression and binding of anti-CD2 staining reagents” value is reported as “strongly bound by all staining reagents”. Further, in the assay with Allo CAR-T cells, the “peak expansion of Allo CAR-T cells compared to Allo CAR-T cells produced without a CSR” value is listed as “a greater degree of expansion”. For the same molecule, in the assay with human CD58, the “degranulation (CD107a) against CD58” value is on record as “Little reactivity; also recorded: completely abrogating anti-CD58 degranulation activity”. The “degree of gene editing compared to Allo CAR-T cells produced without a CSR” value in the assay with TCRb and b2M was “a similar or greater degree of gene editing”.

B2: K67R/Y110D: CSR CD2z mutant within the extracellular domain of CD2 (protein)
chain: KEITNALETWGALGQDINLDIPSFQMSDDIDDIKWEKTSDKKRIAQFRKEKETFKEKDTYKLFKNGTLKIKHLKTDDQDIYKVSIDDTKGKNVLEKIFDLKIQERVSKPKISWTCINTTLTCEVMNGTDPELNLYQDGKHLKLSQRVITHKWTTSLSAKFKCTAGNKVSKESSVEPVSCPEKGLDIYLIIGICGGGSLLMVFVALLVFYITKRKKQRSRRNDEELETRAHRVATEERGRKPHQIPASTPQNPATSQHPPPPPGHRSQAPSHRPPPPGHRVQHQPQKRPPAPSGTQVHQQKGPPLPRPRVQPKPPHGAAENSLSPSSNRVKFSRSADAPAYKQGQNQLYNELNLGRREEYDVLDKRRGRDPEMGGKPRRKNPQEGLYNELQKDKMAEAYSEIGMKGERRRGKGHDGLYQGLSTATKDTYDALHMQALPPR
Consider B2, for which the “surface expression and binding of anti-CD2 staining reagents” value in assay [1] is on record as “expressed on the surface and/or retain binding to the anti-CD2 activator reagent”. The “degranulation (CD107a) against CD58” value with human CD58 is reported as “Little reactivity”; with human CD58 (listed as K67R/Y1101D) it was “do not mediate anti-CD58 degranulation activity”.

B3: K67R/Q70K/Y110D/D111H: CSR CD2z mutant within the extracellular domain of CD2 (protein)
chain: B2 chain with Q46K, D87H
Consider B3, for which the “degranulation (CD107a) against CD58” value with human CD58 was “Little reactivity”.

B4: Delta K106-120: CSR CD2z mutant of the panel (protein)
chain: KEITNALETWGALGQDINLDIPSFQMSDDIDDIKWEKTSDKKKIAQFRKEKETFKEKDTYKLFKNGTLKIKHLKTDDQDIYIFDLKIQERVSKPKISWTCINTTLTCEVMNGTDPELNLYQDGKHLKLSQRVITHKWTTSLSAKFKCTAGNKVSKESSVEPVSCPEKGLDIYLIIGICGGGSLLMVFVALLVFYITKRKKQRSRRNDEELETRAHRVATEERGRKPHQIPASTPQNPATSQHPPPPPGHRSQAPSHRPPPPGHRVQHQPQKRPPAPSGTQVHQQKGPPLPRPRVQPKPPHGAAENSLSPSSNRVKFSRSADAPAYKQGQNQLYNELNLGRREEYDVLDKRRGRDPEMGGKPRRKNPQEGLYNELQKDKMAEAYSEIGMKGERRRGKGHDGLYQGLSTATKDTYDALHMQALPPR
As to B4, the “degranulation (CD107a) against CD58” value with human CD58 is given as “Little reactivity”.

The record behind these values is patent US20220389077A1, “ALLOGENEIC CELL COMPOSITIONS AND METHODS OF USE” (Poseida Therapeutics, Inc., priority 2018, published 2022).
